Measured values as given in patent US20050287132A1, “Biliverdin reductase fragments and variants, and methods of using biliverdin reductase and such fragments and variants” (University of Rochester, priority 1999, published 2005).

T1: biliverdin reductase (Homo sapiens, UniProt P53004, A154S/E160D/G155D/G17A)
T1 construct: used to amplify the full-length cDNA by PCR as described in purification of cloned reductase; GST (N, cleaved yes); made in house; host or cells: E. coli
T1 sequence (P53004 1-296 G17A/A154S/G155D/E160D): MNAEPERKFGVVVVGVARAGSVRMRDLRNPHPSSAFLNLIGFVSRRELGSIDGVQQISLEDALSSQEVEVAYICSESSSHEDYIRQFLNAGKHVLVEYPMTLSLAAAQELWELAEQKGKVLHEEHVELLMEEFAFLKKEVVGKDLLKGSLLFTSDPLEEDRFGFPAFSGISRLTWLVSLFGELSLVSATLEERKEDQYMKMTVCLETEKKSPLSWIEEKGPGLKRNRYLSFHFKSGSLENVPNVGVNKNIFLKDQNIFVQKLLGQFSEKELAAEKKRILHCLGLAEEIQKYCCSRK


Assays:
[1] = biological target: protein kinase C (a mixture containing equal amounts of isozymes α, β and γ) (Promega)
biliverdin reductase [2] = test: Phosphorylation state of hBVR, SDS-PAGE immunoblot with anti-phospho antibodies; format: biochemical, human; conditions: anti-phospho mix blot, corrected for protein loading
Method: (§1) Purified protein was subjected to 12.5% SDS-PAGE and the protein transferred to PVDF membrane. The membrane was subsequently treated as for Western blotting, using anti-phosphoserine, anti-phosphotyrosine or anti-phosphothreonine, at 2 μg/ml, or a mixture of all three antibodies as the primary antibody. The secondary antibody was goat anti-rabbit horseradish peroxidase at a 1:1000 dilution and detection was carried out using the ECL reagent kit (NEN Life Sciences) according to the manufacturer's instructions.

[3] = Biliverdin reductase catalytic activity of recombinant wild type and mutant hBVR (Example 2, FIG. 3); format: biochemical, human
Method: FIGS. 3A-C are graphs depicting the effects of mutation of Gly^17, Ser^149, and Lys^296 on BVR catalytic activity. Purified preparations of recombinant wild type and mutant BVR with substitution of Gly^17 (FIG. 3A), Ser^149 (FIG. 3B), or Lys^296 (FIG. 3C) with Ala were assessed for BVR activity at pH 6.5 using NADH as cofactor and at pH 8.7 with NADPH as cofactor. Values presented are in percent wild type activity for each pH. The specific activity of the wild type preparation was 1744 nmol bilirubin produced min^−1 mg^−1 at pH 6.5 and 1147 nmol bilirubin produced min^−1 mg^−1 at pH 8.7. Values presented are representative of 2-4 determinations.
GST-BVR fusion proteins were prepared as described in Example 1. Human kidney biliverdin reductase was purified to homogeneity as described by Maines et al., Arch. Biochem. Biophys. 300:320-326 (1993), which is hereby incorporated by reference. The purified reductase preparations were judged to be homogenous by SDS-PAGE. Protein concentration was determined by the method of Bradford, Anal. Biochem. 72:248-254 (1976), which is hereby incorporated by reference.
Activity was determined as previously described by Huang et al., J. Biol. Chem. 264:7844-7849 (1989), which is hereby incorporated by reference, using NADPH as the cofactor at pH 8.7 in 0.1 M […] or NADH at pH 6.5 in […]. The rate of activity was measured as the increase in 450 nm absorbance at 25° C. Specific activity is expressed in units/mg protein, where 1 unit catalyzes the formation of 1 nmol bilirubin/min.

HeLa cells = test: Nuclear translocation of hemagglutinin-tagged BVR constructs after 8-bromo-cGMP, immunofluorescence; format: cell-based, human; conditions: 500 μM 8-bromo-cGMP, 5 min (up to 60 min)
Method: HeLa cells were grown on glass cover slips in DMEM medium containing 10% FBS under an atmosphere of 5% CO2. Cells were transfected with different BVR constructs using Lipofectamine, as described by the manufacturer. Briefly, cells were treated with a mixture of 2 μg DNA and 20 μl Lipofectamine for 5 h followed by the addition of DMEM medium. After 48 h, cells were treated with 500 μM 8-bromo-cGMP for 5, 20 or 60 min, fixed with 4% paraformaldehyde for 10 min. Cells were then rinsed with phosphate-buffered saline, incubated with 5% goat serum to block nonspecific binding sites and then with monoclonal anti hemagglutinin primary antibody and FITC conjugated secondary antibody. Cells were visualized by direct fluorescence microscopy.

[4] = Biliverdin reductase activity of E. coli expressed hBVR wild type and mutants (Example 1); format: biochemical, human; conditions: for Activity (nmol bilirubin/min/mg) pH 6.7 + NADH: pH 6.7, NADH cofactor; for Activity (nmol bilirubin/min/mg) pH 6.7 + NADH / Activity (nmol bilirubin/min/mg) pH 8.7 + NADPH: 25°; for Activity (nmol bilirubin/min/mg) pH 8.7 + NADPH: pH 8.7, NADPH cofactor
Method: SalI linkers are underlined in each primer. The products were digested with SalI and cloned into the vector pGEX 4T-2. Orientation was determined by restriction analysis and confirmed by sequencing. The ligation places the BVR coding region in frame with the GST protein of the vector. GST-BVR fusion proteins were purified from bacterial clones containing the plasmid, and grown overnight using a glutathione-sepharose 4B column (Pharmacia). The reductase portion of the fusion protein was released by thrombin protease treatment.
Activity was determined as previously described (Kutty et al., J. Biol. Chem. 256:3956-3962 (1981); Huang et al., J. Biol. Chem. 264:7844-7849 (1989), which are hereby incorporated by reference). Activity was determined in a 1 ml assay volume that contained 0.1 M Tris/HCl, pH 8.7 NADPH (100 μM), and biliverdin (5 μM). Reductase activity was also measured using NADH (1 mM) as the cofactor; in this case 0.1 M potassium phosphate pH 6.75, was substituted for Tris/HCl. SDS/PAGE was performed by the method of Laemmli, Nature 227:680-685 (1970), which is hereby incorporated by reference. Western blot analysis was performed using anti-serum to human kidney biliverdin reductase as previously described (Maines et al., Arch. Biochem. Biophys. 300:320-326 (1993), which is hereby incorporated by reference). The relative amounts of immunoreactive protein were determined by scanning the blot using a laser densitometer and comparing the area under the peak for each mutant with the wild type. The rate of activity was measured as the increase in 450 nm absorbance at 25° C. Specific activity is expressed as nmol bilirubin/min/ mg protein.

biliverdin reductase [5] = biological target: T1, biliverdin reductase; test: Phosphorylation state of hBVR, SDS-PAGE immunoblot with anti-phospho antibodies; format: biochemical; conditions: versus wild type
Method: as §1

Row | Molecule | autophosphorylation activity (biliverdin reductase [2]) | BVR catalytic activity versus wild type ([3]; pH 6.5, NADH) | BVR catalytic activity versus wild type ([3]; pH 8.7, NADPH) | Activity (nmol bilirubin/min/mg) pH 6.7 + NADH [4] [nmol bilirubin/min/mg] | reductase activity relative to the control (wild type) ([4]; pH 6.7 with NADH) | Activity (nmol bilirubin/min/mg) pH 8.7 + NADPH [4] [nmol bilirubin/min/mg] | other results
1 | rat biliverdin reductase as used in the PKC activity assays (protein) AEPKRKFGVVVVGVGRAGSVRLRDLKDPRSAAFLNLIGFVSRRELGSLDEVRQISLEDALRSQEIDVAYICSESSSHEDYIRQFLQAGKHVLVEYPMTLSFAAAQELWELAAQKGRVLHEEHVELLMEEFEFLRREVLGKELLKGSLRFTASPLEEERFGFPAFSGISRLTWLVSLFGELSLISATLEERKEDQYMKMTVQLETQNKGLLSWIEEKGPGLKRNRYVNFQFTSGSLEEVPSVGVNKNIFLKDQDIFVQKLLDQVSAEDLAAEKKRIMHCLGLASDIQKLCHQKK | – | – | – | – | – | – | Km of the PKC reaction for the substrate MBP, upon addition of BVR [1]: substrate Km increasing from 0.145 to 0.16 upon addition of BVR to the reaction; PKC activity, incorporation of 32P into MBP, after 15 min preincubation of PKC with varying concentrations of BVR [1]: incorporation of ^32P into MBP was increased in a dose-dependent manner in the presence of BVR; Vmax of the PKC reaction with respect to ATP, in the presence of 50 µM BVR [1]: increased from 3.3 to 4.9 and 1.7 to 2.9 pmol/min, respectively; Vmax of the PKC reaction with respect to MBP, in the presence of 50 µM BVR [1]: increased from 3.3 to 4.9 and 1.7 to 2.9 pmol/min, respectively
2 | Lys^296 mutant: hBVR with Lys^296→Ala at the C terminus within a substrate binding domain (protein, UniProt P53004 3-296, looked up, variant K296A) Biliverdin reductase A: AEPERKFGVVVVGVGRAGSVRMRDLRNPHPSSAFLNLIGFVSRRELGSIDGVQQISLEDALSSQEVEVAYICSESSSHEDYIRQFLNAGKHVLVEYPMTLSLAAAQELWELAEQKGKVLHEEHVELLMEEFAFLKKEVVGKDLLKGSLLFTAGPLEEERFGFPAFSGISRLTWLVSLFGELSLVSATLEERKEDQYMKMTVCLETEKKSPLSWIEEKGPGLKRNRYLSFHFKSGSLENVPNVGVNKNIFLKDQNIFVQKLLGQFSEKELAAEKKRILHCLGLAEEIQKYCCSRA | essentially comparable to that of the wild type protein | doubling of activity | doubling of activity | – | – | – | –
3 | NLS mutant: hemagglutinin tagged hBVR with amino acids 222-227 changed from GLKRNR to VIGSTG (SEQ. ID. No. 25) (protein, UniProt P53004 3-296, looked up, variant G222V L223I K224G R225S N226T R227G, hemagglutinin tag) Biliverdin reductase A: AEPERKFGVVVVGVGRAGSVRMRDLRNPHPSSAFLNLIGFVSRRELGSIDGVQQISLEDALSSQEVEVAYICSESSSHEDYIRQFLNAGKHVLVEYPMTLSLAAAQELWELAEQKGKVLHEEHVELLMEEFAFLKKEVVGKDLLKGSLLFTAGPLEEERFGFPAFSGISRLTWLVSLFGELSLVSATLEERKEDQYMKMTVCLETEKKSPLSWIEEKGPVIGSTGYLSFHFKSGSLENVPNVGVNKNIFLKDQNIFVQKLLGQFSEKELAAEKKRILHCLGLAEEIQKYCCSRK | – | – | – | – | – | – | nuclear localization in response to 8-bromo-cGMP (HeLa cells): not detected
4 | Gly^17: hBVR SEQ. ID. No. 1 with Gly^17→Ala within the nucleotide binding domain (protein, listed as Homo sapiens) MNAEPERKFGVVVVGVARAGSVRMRDLRNPHPSSAFLNLIGFVSRRELGSIDGVQQISLEDALSSQEVEVAYICSESSSHEDYIRQFLNAGKHVLVEYPMTLSLAAAQELWELAEQKGKVLHEEHVELLMEEFAFLKKEVVGKDLLKGSLLFTSDPLEEDRFGFPAFSGISRLTWLVSLFGELSLVSATLEERKEDQYMKMTVCLETEKKSPLSWIEEKGPGLKRNRYLSFHFKSGSLENVPNVGVNKNIFLKDQNIFVQKLLGQFSEKELAAEKKRILHCLGLAEEIQKYCCSRK | – | essentially inactive | essentially inactive | 698 | 20-25% | 0 | reductase activity relative to the control (wild type) ([4]; pH 8.7 with NADPH): inactive; reduction in phosphorylation (biliverdin reductase [5]; anti-phospho mix, laser densitometry): approximately 50%; reduction of phosphoserine signal (biliverdin reductase [5]; anti-phosphoserine): approximately 50%; reduction in phosphothreonine signal (biliverdin reductase [5]; anti-phosphothreonine): not evident; reduction of phosphotyrosine signal (biliverdin reductase [5]; anti-phosphotyrosine): approximately 50%
5 | Ser^149: hBVR SEQ. ID. No. 1 with Ser^149→Ala within the kinase motif of the leucine zipper (protein, listed as Homo sapiens) MNAEPERKFGVVVVGVGRAGSVRMRDLRNPHPSSAFLNLIGFVSRRELGSIDGVQQISLEDALSSQEVEVAYICSESSSHEDYIRQFLNAGKHVLVEYPMTLSLAAAQELWELAEQKGKVLHEEHVELLMEEFAFLKKEVVGKDLLKGALLFTSDPLEEDRFGFPAFSGISRLTWLVSLFGELSLVSATLEERKEDQYMKMTVCLETEKKSPLSWIEEKGPGLKRNRYLSFHFKSGSLENVPNVGVNKNIFLKDQNIFVQKLLGQFSEKELAAEKKRILHCLGLAEEIQKYCCSRK | essentially comparable to that of the wild type protein | essentially inactive | essentially inactive | 0 | inactive | 231 | reductase activity relative to the control (wild type) ([4]; pH 8.7 with NADPH, listed as Ser^149 mutant): minimal activity
